Measurements as given in patent publication US20190225703A1 (INNATE PHARMA, published 2019).
Substitutions are numbered along the chain they refer to.

Columns and labels:
[1] = biological target: T1, human CD73 (ecto-5'-nucleotidase) expressed at the cell surface (human, UniProt P21589 27-549); assay: flow cytometry titration on human-CD73-expressing cell line
T1 construct: Used for huCD73-expressing recombinant cell lines, MDA-MB-231 cells (endogenous CD73), HEK-293T cells with wild type CD73, and primary T and B cells; also called huCD73; wild type CD73
T1 sequence: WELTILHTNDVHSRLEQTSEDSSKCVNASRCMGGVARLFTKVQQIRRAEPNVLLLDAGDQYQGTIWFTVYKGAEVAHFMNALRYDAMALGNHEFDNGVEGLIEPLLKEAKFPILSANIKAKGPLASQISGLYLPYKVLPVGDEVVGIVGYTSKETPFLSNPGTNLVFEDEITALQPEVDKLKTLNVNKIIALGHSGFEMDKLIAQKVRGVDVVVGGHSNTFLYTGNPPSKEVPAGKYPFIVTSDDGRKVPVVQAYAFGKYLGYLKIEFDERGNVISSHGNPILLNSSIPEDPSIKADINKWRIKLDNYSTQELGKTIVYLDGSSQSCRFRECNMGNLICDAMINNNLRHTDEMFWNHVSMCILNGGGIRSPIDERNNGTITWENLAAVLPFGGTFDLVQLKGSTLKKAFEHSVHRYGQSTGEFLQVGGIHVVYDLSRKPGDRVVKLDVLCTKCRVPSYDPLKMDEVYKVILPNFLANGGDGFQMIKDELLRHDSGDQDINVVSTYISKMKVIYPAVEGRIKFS
Procedure: (§1) 10⁵ cells resuspended in PBS/0.2% BSA/0.02% NaN3 (named “staining buffer”) are distributed into round bottom 96W-microplates. Dose-range of anti-CD73 antibodies was added to the plates and cells are incubated for 45 min at 4° C. Cells were washed three times in staining buffer by spinning plates at 400 g for 3 min at 4° C. PE-coupled goat anti-mouse or goat anti-human IgG Fc fragment secondary antibodies (Beckman Coulter) diluted in staining buffer were added to the cells and plates are incubated for 30 additional minutes at 4° C. Cells were washed three times as described above and analyzed on an Accury C6 flow cytometer equipped with an HTFC plate reader.
(§2) Median of fluorescence vs. antibodies concentration was plotted on graphs and EC50 is calculated using GraphPad Prism program.

[2] = biological target: T1, human CD73 (ecto-5'-nucleotidase) …; assay: flow cytometry titration on MDA-MB-231 cells, endogenous CD73
Procedure: as §1, §2

human CD73 mutant 3 = biological target: T2, human CD73 mutant 3 (human, UniProt P21589 27-549); assay: flow cytometry titration on HEK-293T cells transfected with CD73 mutant 3
T2 construct: Transfected in HEK-293T cells
T2 chain: T1 sequence with A73S, E103A, K107A, E108N, A109S

human CD73 mutant 4 = biological target: T3, human CD73 mutant 4 (human, UniProt P21589 27-549); assay: flow cytometry titration on HEK-293T cells transfected with CD73 mutant 4
T3 construct: Transfected in HEK-293T cells
T3 chain: T1 sequence with K119A, K121A, S126H, S129A, Y135S, E177A, K180A
Procedure: (§3) Anti-CD73 antibodies are tested for their binding to each mutant by flow cytometry. A first experiment is performed to determine antibodies that lose their binding to one or several mutants at one concentration. To confirm a loss of binding, titration of antibodies is done on antibodies for which binding seemed to be affected by the CD73 mutations (1-0.1-0.01-0.001 μg/ml).

human CD73 mutant 5 = biological target: T4, human CD73 mutant 5 (human, UniProt P21589 27-549); assay: flow cytometry titration on HEK-293T cells transfected with CD73 mutant 5
T4 construct: Transfected in HEK-293T cells
T4 chain: T1 sequence with P139S, D142G, N185A, E270A, R271A

[3] = biological target: T1, human CD73 (ecto-5'-nucleotidase) …; assay: flow cytometry titration on HEK-293T cells transfected with wild type human CD73
Procedure: as §3

[4] = biological target: T5, cynomolgus CD73 expressed at the cell surface (cynomolgus); assay: flow cytometry titration on cynomolgus-CD73-expressing cell line
T5 construct: whole, on cells; Recombinant cell line expressing cynomolgus CD73; also called cynoCD73
Procedure: as §1, §2

[5] = biological target: T6, mouse CD73 expressed at the cell surface (mouse, UniProt Q61503 29-551); assay: flow cytometry titration on a cell line expressing mouse CD73
T6 construct: whole, on cells; Recombinant cell line expressing mouse CD73; also called moCD73
T6 sequence (looked up): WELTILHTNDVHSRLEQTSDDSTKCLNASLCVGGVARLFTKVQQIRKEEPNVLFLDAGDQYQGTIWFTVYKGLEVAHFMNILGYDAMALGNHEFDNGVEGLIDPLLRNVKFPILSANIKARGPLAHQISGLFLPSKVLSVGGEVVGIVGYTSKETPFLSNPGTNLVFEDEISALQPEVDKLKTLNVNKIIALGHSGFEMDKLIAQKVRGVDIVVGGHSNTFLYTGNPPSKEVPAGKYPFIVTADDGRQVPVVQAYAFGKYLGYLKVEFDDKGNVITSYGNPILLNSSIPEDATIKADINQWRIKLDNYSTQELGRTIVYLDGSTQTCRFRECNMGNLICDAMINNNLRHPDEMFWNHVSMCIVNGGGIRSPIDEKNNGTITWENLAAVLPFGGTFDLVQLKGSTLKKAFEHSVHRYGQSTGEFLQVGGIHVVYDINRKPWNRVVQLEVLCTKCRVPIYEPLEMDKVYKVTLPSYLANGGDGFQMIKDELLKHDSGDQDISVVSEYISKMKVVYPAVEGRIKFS
Procedure: as §1, §2

human CD73 mutant 2 = biological target: T7, human CD73 mutant 2 (human, UniProt P21589 27-549); assay: flow cytometry titration on HEK-293T cells transfected with CD73 mutant 2
T7 construct: Transfected in HEK-293T cells; The cell prints A1071, read as A107I
T7 chain: T1 sequence with Q44S, R47A, A48E, A81I, R83G
Procedure: as §3

[6] = biological target: T8, recombinant human CD73-His extracellular domain protein, soluble dimer (human, UniProt P21589 27-547); assay: SPR (Biacore T100, 25 °C), antibody captured on Protein-A, soluble dimeric CD73 injected 1.23 to 300 nM, 1:1 kinetic model, bivalent affinity
T8 construct: also called huCD73 protein; human recombinant soluble dimeric CD73
T8 sequence: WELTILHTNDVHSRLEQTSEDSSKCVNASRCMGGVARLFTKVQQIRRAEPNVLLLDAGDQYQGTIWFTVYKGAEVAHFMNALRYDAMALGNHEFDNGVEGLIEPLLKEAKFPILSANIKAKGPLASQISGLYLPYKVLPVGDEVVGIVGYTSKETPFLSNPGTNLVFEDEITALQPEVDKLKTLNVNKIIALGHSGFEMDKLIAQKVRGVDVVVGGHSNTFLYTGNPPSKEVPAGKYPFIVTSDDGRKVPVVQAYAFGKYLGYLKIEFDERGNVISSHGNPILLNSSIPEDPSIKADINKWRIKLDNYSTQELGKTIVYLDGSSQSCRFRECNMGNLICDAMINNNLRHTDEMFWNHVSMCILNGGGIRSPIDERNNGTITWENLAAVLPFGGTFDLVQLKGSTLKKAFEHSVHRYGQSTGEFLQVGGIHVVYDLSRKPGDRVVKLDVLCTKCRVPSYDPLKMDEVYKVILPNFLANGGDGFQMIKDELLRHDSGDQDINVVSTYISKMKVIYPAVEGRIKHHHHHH
Procedure: SPR measurements were performed on a Biacore T100 apparatus (Biacore GE Healthcare) at 25° C. In all Biacore experiments HBS-EP+(Biacore GE Healthcare) and NaOH 10 mM served as running buffer and regeneration buffer respectively. Sensorgrams were analyzed with Biacore T100 Evaluation software. Protein-A was purchase from (GE Healthcare). Human soluble dimeric CD73 proteins were cloned, produced and purified at Innate Pharma.
Protein-A proteins were immobilized covalently to carboxyl groups in the dextran layer on a Sensor Chip CMS. The chip surface was activated with EDC/NHS (N-ethyl-N′-(3-dimethylaminopropyl) carbodiimide hydrochloride and N-hydroxysuccinimide (Biacore GE Healthcare). Protein-A was diluted to 10 μg/ml in coupling buffer (10 mM acetate, pH 5.6) and injected until the appropriate immobilization level was reached (i.e. 2000 RU). Deactivation of the remaining activated groups was performed using 100 mM ethanolamine pH 8 (Biacore GE Healthcare).
Affinity study was carried out according to a standard Capture-Kinetic protocol recommended by the manufacturer (Biacore GE Healthcare kinetic wizard). Serial dilutions of human recombinant soluble dimeric CD73 proteins, ranging from 1.23 to 300 nM were sequentially injected over the captured anti-CD73 antibodies and allowed to dissociate for 10 min before regeneration. […]

B1: antibody AD2 (Biolegend Corp, product ref. 344004) (antibody, V domains shown)
VH: EVQLQQSGAELVKPGASVKLSCTASGFNIKDTYIHWVKQRPEQGLEWIGRIDPATGNTEYDPKFQGKATITADTSSNTAYLHLSSLTSEDTAVYYCARGYYGSSYPPWFAYWGQGTLVTVS
VL: DIVMTQSHKFMSTSVGDRVSITCKASQDVGSAVAWYQQKPGQSPKLLIYWASTRHTGVPDRFTGSGSGTDFTLTISNVQSEDLADYFCQQYSSYPLTFGAGTKLELK
In the case of B1, the EC50 [1] is reported as 0.743 µg/mL, the “fold higher concentration (EC50) than 7H10” value [1] is reported as about 4 fold and the EC50 [2] is reported as 0.431 µg/mL. The “EC50 (read off the curve)” value (human CD73 mutant 3) was about 0.1 µg/mL, the “EC50 (read off the curve)” value (human CD73 mutant 4) was about 0.06 µg/mL and the “EC50 (read off the curve)” value (human CD73 mutant 5) was about 0.07 µg/mL. For the same binder, the “EC50 (read off the curve)” value [3] was about 0.2 µg/mL.

B2: antibody 12F9 (antibody, human IgG1, V domains shown)
VH: QVQLQQSGPELVKPGASVRISCKASGYTFTNYYIHWVKQRPGQGLEWIGWIYPGNVNTKYNEKFKGKATLTADKSSNTAYMQLSSLTSEDSAVYFCAREGGYDRYALDYWGQGTSVTVSS
VL: QIVLTQSPALMSASPGEKVTMTCSASSSVSYMYWYQQKPRSSPKPWIYLTSNLASGVPARFSGSGSGTSYSLTISSMEAEDAATYYCQQWSSNPLTFGAGTKLELK
Binder B2 has an EC50 [1] of 0.137 µg/mL, an EC50 [2] of 0.036 µg/mL and an EC50 [4] of 0.527 µg/mL. The binding result [5] was “no binding (tested: 10 µg/ml)”, the “EC50 (read off the curve)” value (human CD73 mutant 2) was about 0.2 µg/mL and the “EC50 (read off the curve)” value [3] was about 0.2 µg/mL. It also gave a Kd [6] of 938 pM.
